From patent publication US20240309102A1 (LENTIGEN TECHNOLOGY, published 2024)
Blank lines part the entries; values can stand above or below the binder they belong to.

Biological target: T1, recombinant human CD123-Fc (human, UniProt P26951 19-305, limits assumed)
T1 construct: Panning and sorting antigen; not shown: Fc part
T1 sequence (looked up): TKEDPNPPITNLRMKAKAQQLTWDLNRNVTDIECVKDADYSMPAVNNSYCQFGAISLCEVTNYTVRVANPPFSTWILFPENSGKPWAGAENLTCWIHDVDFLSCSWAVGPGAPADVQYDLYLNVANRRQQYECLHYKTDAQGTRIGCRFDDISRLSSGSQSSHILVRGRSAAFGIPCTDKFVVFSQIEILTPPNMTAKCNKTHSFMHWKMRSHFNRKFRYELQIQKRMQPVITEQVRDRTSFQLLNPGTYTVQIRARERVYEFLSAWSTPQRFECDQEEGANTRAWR
Test: yeast display; 3 rounds of MACS and a FACS sort (top 1%) with CD123-Fc; clone sequenced from the sorted pool, not tested singly
Description: A large yeast display human naive single chain variable fragment (ScFv) antibody library was used to isolate anti-human CD123 antibodies described herein. The library was constructed using a collection of human antibody gene repertoires from more than 60 individuals. Three rounds of magnetic-activated cell sorting (MACS) were performed to enrich human ScFv binders to the recombinant human CD123-Fc. For the first round of yeast library panning, the yeast display ScFv library (5×10¹⁰ cells) was incubated with 5 μg/mL CD123-Fc in 15 ml PBSA (consisting of 0.1% Bovine Serum Albumin (BSA) in Dulbecco's phosphate-buffered saline (PBS) buffer), at room temperature on a rotator for 1.5 hours. After two times washing with 25 ml PBSA, the yeast library mix was incubated with 100 μL Protein G microbeads (Miltenyi Biotec) at room temperature on a rotator for 30 minutes. After one time washing, the library mix was resuspended in 50 ml of PBSA and loaded onto the MACS cell separation column (LS column). After three times washing with 10 ml PBSA. […] These eluted yeast cells were combined and then resuspended into 50 ml SDCAA medium (20 g D-glucose, 6.7 g BD Difco™ Yeast Nitrogen Base without Amino Acids, 5 g Bacto™ Casamino Acids, 5.4 g Na2·HPO4, and 8.56 g NaH2PO4·H2O in 1 L water) and amplified with shaking at 225 rpm at 30° C. for 20 hours. The amplified pool was then induced in SGCAA medium (consisting of the same composition of SDCAA medium, but containing galactose instead of glucose), with shaking at 225 rpm at 30° C. for another 16 hours and used for next round of panning. The same process was repeated two more times to enrich the CD123-Fc specific binders.
To further enrich the binders with higher affinity and better specificity, FACS based sorting was employed to isolate the strongest binders from the pool. The induced pool was incubated with 1 μg/ml of CD123-Fc at room temperature for 1 hour and then stained with Anti-c-Myc-Alexa 488 and Goat anti-Hu-Fc PE conjugates, the top 1% of the pool with the highest PE versus FITC signal was gated and sorted. The sorted pool was amplified in SDCAA medium and yeast plasmid DNA was extracted and transformed into bacterial for single clone DNA sequencing. 40 random clones were sequenced and 36 unique sequences were identified.

binding result: binds
B9: CD123 hScFv binder M12318 (scFv)
scFv: EVQLVQSGGGVVQPGRSLRLSCAASGFTFSSYSMNWVRQAPGKGLEWVSSISSSSSYIYYADSVKGRFTISRDNAKNTLYLQMNSLRAEDTAVYYCARDNWGSLDYWGQGTLVTVSSGGGGSGGGGSGGGGSDIQMTQSPSSLSASVGDRVTITCQASQDISNYLNWYQQKPGKAPKLLIYDASNLETGVPSRFSGSGSGTDFTFTISSLQPEDIATYYCQQYDNLPHMYTFGQGTKLEIK

binding result: binds
B10: CD123 hScFv binder M12309 (scFv)
scFv: EVQLVQSGAEVKKPGATVKISCKVSGYTFTDYYMHWVQQAPGKGLEWIGLVDPEDGETIYAEKFQGRVTITADTSTDTAYMELSSLRSEDTAVYYCATAPLGEVGAAVDYWGQGTLVTVSSGGGGSGGGGSGGGGSHVILTQPPSVSAAPGQEVSISCSGSDANIGTNLVSWYQHVPGTAPKLLIYENSKRPSGIPARFSSSQSGTSATLAISGLQSGDEAIYYCLTWDRTLSGKIFGGGTQLTVLG

binding result: binds
B11: CD123 hScFv binder M12311 (scFv)
scFv: EVQLVQSGAEVKKPGSSVKVSCKASGGTFSSYAISWVRQAPGQGLEWMGGIIPIFGTANYAQKFQGRVTITADESTSTAYMELSSLRSEDTAVYYCARARLGGAFDIWGQGTMVTVSSGGGGSGGGGSGGGGSQSVLTQPPSVSAAPGQKVTISCSGGSSNIGNHYVSWYQQLPGAAPKLLIYDDNKRPSGIPDRFSGSRSGTSATLGITGLQSGDEADYYCGTWDSSLAAHVFGTGTKVTVLG

binding result: binds
B12: CD123 hScFv binder M12313 (scFv)
scFv: EVQLVQSGAEVKKPGSSVKVSCKASGGTFSSYAISWVRQAPGQGLEWMGGIIPIFGTANYAQKFQGRVTITADESTSTAYMELSSLRSEDTAVYYCASQKGGGWSIDAFDIWGQGTMVTVSSGGGGSGGGGSGGGGSQSVLTQPPSVSAASGQRVTISCSGSSSNIGNNYASWYQQLPGMAPKLLIYEDNKRPSGISDRFSGSQSGTSASLAITGLQAEDEADYYCQSYDSSLSGDVVFGGGTKLTVLG

Second part, the binder before the results:

B1: CD123 hScFv binder M12315 (scFv)
scFv: QVQLQQWGAGLLKPSETLSLTCAVYGGSFSGYYWSWIRQPPGKGLEWIGEINHSGSTNYNPSLKSRVTISVDTSKNQFSLKLSSVTAADTAVYYCARGQVKYSSSLGYWGQGTLVTVSSGGGGSGGGGSGGGGSQSVLTQPPSVSAAPGQKVTISCSGSSSNIGNNFVSWYQQLPGTAPKLLIYEDNKRPSGIPDRFSGSRSGTSATLGITGLQTGDEADYYCGTWDSSLGAWVFGGGTKLTVLG
binding result: binds

B2: CD123 hScFv binder M12306 (scFv)
scFv: EVQLVQSGSELKKPGASVKVSCKASGGTFSSYAISWVRQAPGQGLEWMGGIIPIFGTANYAQKFQGRVTITADESTSTAYMELSSLRSEDTAVYYCASTARRGWDTAGPLDYWGQGTLVTVSSGGGGSGGGGSGGGGSDIQMTQSPSSLSASVGDRVTIACRASQTISRYLNWYQQKPGKAPKLLIYAASSLQSGVSSRFSGSGSGTEFTLTISSLQPEDFATYFCQQTYSPPITFGQGTRLEIK
binding result: binds

B3: CD123 hScFv binder M12305 (scFv)
scFv: QVQLVQSGAEVKKPGSSVKVSCKASGGTFSSYAISWVRQAPGQGLEWMGGIIPIFGTANYAQKFQGRVTITTDESTSTAYMELSSLRSEDTAVYYCARRGWGGFSSGSAFDIWGQGTMVTVSSGGGGSGGGGSGGGGSNFMLTQPHSVSESPGNTVTISCTGSSGTIGSNFVQWYQQSPGRAPTLLIYEDTKRPSGVPPRFAGSVDSSSNSASLTISGLKTEDEADYYCQSYDSSNWVFGGGTKLTVLG
binding result: binds

B4: CD123 hScFv binder M12303 (scFv)
scFv: EVQLVETGAEVKKPGASVKVSCKASGYTFTTYYVHWVRQAPGQGLEWMGIINPSGGSTSYAQKFQGRVTMTRDTSTSTVYMELSSLRSEDTAVYYCARDGGLGGYEAWGQGTLVTVSSGGGGSGGGGSGGGGSDIQLTQSPSALSASAGDRVTITCQASQDISNYLNWYQQKPGKAPKLLIYDASNLERGVPSRFSGSGSGTEFTFTISSLQPEDIATYYCQQYDNLPITFGQGTRLEIK
binding result: binds

B5: CD123 hScFv binder M12316 (scFv)
scFv: EVQLVESGGGLVQPGGSLRLSCAASGFTFSSYAMHWVRQAPGKGLEWVSSISSSSSYIYYADSVKGRFTISRDNSKNTLYLQMNSLRAEDTAVYYCARDWDDAFDIWGQGTTVTVSSGGGGSGGGGSGGGGSDIQMTQSPSSLSASVGDRVTITCQASQDISNYLNWYQQKPGKAPKLLIYDASNLETGVPSRFSGSGSGTDFTFTISSLQPEDIATYYCQQYDNLPLTFGGGTKLEIK
binding result: binds

B6: CD123 hScFv binder M12308 (scFv)
scFv: EVQLVETGAEVKNPGSSVKVSCKASGGTLSNYAISWVRQAPGKGLEWMGGIIPIFGTANYAQKFQGRVTITADESTSTAYMELSSLRSEDTAVYYCARRSSWYPEGCFQHWGQGTLVTVSSGGGGSGGGGSGGGGSDIQLTQSPSSLSASTGDRVTITCRASQGISSYLAWYQQKPGKAPKLLIYAASTLQSGVPSRFSGSGSGTDFTLTISCLQSEDFATYYCQQYYSYPLTFGGGTKLDIK
binding result: binds

B7: CD123 hScFv binder M12317 (scFv)
scFv: QVQLVETGGGLVKPGGSLRLSCAASGFTFSSYSMNWVRQAPGKGLEWVSSISSSSSYIYYADSVKGRFTISRDNAKNSLYLQMNSLRAEDTAVYYCARDGDFWSGAIDYWGQGTLVTVSSGGGGSGGGGSGGGGSDIQLTQSPSSLSASVGDRVTITCQASQDISNYLNWYQQKPGKAPKLLIYDASNLETGVPSRFSGSGSGTDFTFTISSLQPEDIATYYCQQYDNLPLFGGGTKLEIK
binding result: binds

B8: CD123 hScFv binder M12314 (scFv)
scFv: EVQLVQSGAEVKKPGSSVKVSCKASGGTFSSYAISWVRQAPGQGLEWMGGIIPIFGTANYAQKFQGRVTITADESTSTAYMELSSLRSEDTAVYYCARVGCSGGSCYPDYWGQGTLVTVSSGGGGSGGGGSGGGGSEIVLTQSPSSLSASVGDRVTITCQASQDISNYLNWYQQKPGKAPKLLIYDASNLETGVPSRFSGSGSGTDFTFTISSLQPEDIATYYCQQYDNLPLTFGGGTKLDIK
binding result: binds
